In the supplement of paper PMC9170038:

System: MS2 coat protein
Test: apparent KD of MS2 coat protein; designed switch direction (-1 OFF switch, 1 ON switch): -1; higher = weaker reporter binding
Procedure, shortened: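 Designed RNA switches sharing common flanks were transcribed on Illumina chips by stalled E. coli RNA polymerase. They were titrated with SNAP-549-labelled MS2 coat protein, from 0.7 or 1.5 nM doubling to 3 µM, in Tris-HCl pH 7.5 buffer with KCl, MgCl2, BSA, DTT, tRNA and Tween-20. Titrations ran without input, with 200 uM small-molecule ligand, or with an oligonucleotide input. The apparent KD of each design is the median over its clusters, after curve-fitting of normalised cluster fluorescence.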

[1] = Eterna round: R95, input ligand: FMN 200 uM
[2] = Eterna round: R95, input ligand: microRNA oligo, concentration not stated
[3] = Eterna round: R95, input ligand: none
[4] = input ligand: microRNA oligo, concentration not stated

How did the “apparent KD of MS2 coat protein” value [1] turn out when “AAUGAUGAUGUGAGGAUAUACAUAGUUAGACCGUAGUAGAAGGCACAUGAGGAUCACCCAUGUAGAUGUUAGGU [JR_BME4_Sub003] (puzzle: Brourd's mod of Exclusion 4)” was run?
Its value is 21.5 nM.

And the “apparent KD of MS2 coat protein” value [2]?
The value was 12.9 nM.

And the “apparent KD of MS2 coat protein” value [3]?
The value was 14.4 nM.

How did the “apparent KD of MS2 coat protein” value (input ligand: FMN 200 uM) turn out when “AAUGAUUGACGAGGAUAUUGUGGUAGAUCACGACGAGAAGGCGUAUGUCACAUGAGGAUCACCCAUGUGAGCUUUGUGGAUAGA [Ex NG1 #74] (Eterna round: R96, puzzle: Exclusion NG 1)” was run?
Its value is 27.1 nM.

And the “apparent KD of MS2 coat protein” value [4]?
Its value is 16.1 nM.

What about the “apparent KD of MS2 coat protein” value (input ligand: none) of the same sequence?
Its value is 20.7 nM.

With “AAUGGCUGAGGAUAUACACUCACGUCUAAAAGGUUCAAAUGACAUGAGGAUCACCCAUGUAGAAGGCAGCCCGA [Regeor] (puzzle: Exclusion 2)” as the sequence, how does the “apparent KD of MS2 coat protein” value [2] read?
The value was 98.4 nM.

“AAUGUGUGAGGAUAUUAAUUGCAAGCGAAUAGGCUUGUGAUUGAGAAGGCACAUGAGGAUCACCCAUGUUCCAA [JR_Ex4_Sub083] (Eterna round: R97, puzzle: Exclusion 4)” was tested. Which “apparent KD of MS2 coat protein” value (input ligand: FMN 200 uM) did it give?
Its value is 557 nM.

What about the “apparent KD of MS2 coat protein” value (input ligand: none) of the same sequence?
Its value is 38.6 nM.

How did the “apparent KD of MS2 coat protein” value (input ligand: FMN 200 uM) turn out when “AAUUAGUCAGGAUAUACAUGAGGAUCACCCAUGUAAACUUUUAGUUUAAUUUGAAUGUGUAGAAGGGACAUUUA [Ex3 #47] (Eterna round: R97, puzzle: Exclusion 3)” was run?
Its value is 18.9 nM.

And the “apparent KD of MS2 coat protein” value (input ligand: none)?
Its value is 22.2 nM.

For “AAUUAUUGAUGAGGAUAUUGUGGUGAAACACCACAAGAAGGCAUUAUACACAUGAGGAUCACCCAUGUGAGCCUGAUGCUUAUG [Ex NG1 #55] (Eterna round: R96, puzzle: Exclusion NG 1)”, which “apparent KD of MS2 coat protein” value [4] is on record?
Its value is 12.7 nM.

How did the “apparent KD of MS2 coat protein” value [4] turn out when “AAUUAUUUAUGAGGAUAUUGUGGUGAAACACCACAAGAAGGCAUGAUACACAUGAGGAUCACCCAUGUGAGCCUGAUGCAUAUA [Ex NG1 #58] (Eterna round: R96, puzzle: Exclusion NG 1)” was run?
The value was 13.5 nM.

For “AAUUUACAUGAGGAUCACCCAUGUGAGGAUAUGAUACUAUGUACUUCGGUACAUAGUAUCAGAAGGCAUGUGAA [Ex1-3: 92] (puzzle: Exclusion 1)”, which “apparent KD of MS2 coat protein” value [2] is on record?
Its value is 133 nM.

Which “apparent KD of MS2 coat protein” value (input ligand: FMN 200 uM) does the source give for “AAUUUACAUGAGGAUCACCCAUGUGAGGAUAUGGUUUCGCUGGCCGUAGCCAGUGGAACCAGAAGGCGCGUGAU [Mat - Exclusion 1 - JL Mod - D28] (Eterna round: R97, puzzle: Exclusion 1)” here?
The value was 195 nM.

What about the “apparent KD of MS2 coat protein” value (input ligand: none) of the same sequence?
The value was 84.3 nM.

“ACAAAGGGAGUCAGGAUAUCGGACGUAAGUCAAGACGAGAAGGGACAUGAGGAUCACCCAUGUCAGCGGUGAAA [Exclusion 4 S1] (puzzle: Brourd's mod of Exclusion 4)” was tested. Which “apparent KD of MS2 coat protein” value [1] did it give?
The value was 42.5 nM.

And the “apparent KD of MS2 coat protein” value [2]?
The value was 18.7 nM.

What about the “apparent KD of MS2 coat protein” value [3] of the same sequence?
The value was 17 nM.

For “ACAAAGGUAGGAUAUCGGACUAUGGACAUGAGGAUCACCCAUGUGCGUCCAGUGUCCAACCGAGAAGGACCCAAAA [Beinge] (puzzle: Exclusion 5)”, which “apparent KD of MS2 coat protein” value [1] is on record?
The value was 83.2 nM.

And the “apparent KD of MS2 coat protein” value [2]?
The value was 86.1 nM.

And the “apparent KD of MS2 coat protein” value [3]?
The value was 91.6 nM.

“ACAAGAAUUUUGCUCGUAAAGUAGAAACGCGAGAGCGAGACAUGAGGAUCACCCAUGUAAAGGCAGUAGGUGGAGAU [JR_SV3TOV2_Sub027] (puzzle: Sensor v3, turn-off variant 2)” was tested. Which “apparent KD of MS2 coat protein” value [1] did it give?
Its value is 49.3 nM.

What about the “apparent KD of MS2 coat protein” value [2] of the same sequence?
Its value is 50.9 nM.

And the “apparent KD of MS2 coat protein” value [3]?
The value was 46.1 nM.

For “ACAAGCAUUUAGUAAAUGGACAUGAGGAUCACCCAUGUGAGUCCGAAGAGAUAAGAUAUAUUGUCGGCUCGUCUUAU [AK-miRNA-r3-22] (Eterna round: R97, puzzle: Sensor, turn-off variant 1)”, which “apparent KD of MS2 coat protein” value (input ligand: FMN 200 uM) is on record?
The value was 55.9 nM.

What about the “apparent KD of MS2 coat protein” value (input ligand: none) of the same sequence?
Its value is 94.8 nM.

How did the “apparent KD of MS2 coat protein” value [1] turn out when “ACAAGCUCUUUGCAACUUAGUUUUGUUGCUUCGUAGGUAACAUGAGGAUCACCCAUGUAAGAGUGAUGUCGUCUUAU [JR_SV3TOV2_Sub085] (puzzle: Sensor v3, turn-off variant 2)” was run?
The value was 65.8 nM.

And the “apparent KD of MS2 coat protein” value [2]?
Its value is 52.7 nM.

What about the “apparent KD of MS2 coat protein” value [3] of the same sequence?
Its value is 76.9 nM.

“ACAAGCUUAAUCAGUAAGAACAUGAGGAUCACCCAUGUAAAUGAAAGGACUAUUGGGUUAUUUAAAGCUCGUCUUAU [JR_STOV1_Sub014] (Eterna round: R97, puzzle: Sensor, turn-off variant 1)” was tested. Which “apparent KD of MS2 coat protein” value (input ligand: FMN 200 uM) did it give?
Its value is 52.1 nM.

And the “apparent KD of MS2 coat protein” value (input ligand: none)?
Its value is 52.8 nM.

“ACAAGCUUAUUGCUCGGGUACAUGAGGAUCACCCAUGUUUGUGAUUAUAGAGAUUGUGUUGACGUGCGCUGCAGGUU [JR_SV3TOV1_Sub078] (puzzle: Sensor v3, turn-off variant 1)” was tested. Which “apparent KD of MS2 coat protein” value [1] did it give?
Its value is 61.1 nM.

And the “apparent KD of MS2 coat protein” value [2]?
Its value is 37.9 nM.

And the “apparent KD of MS2 coat protein” value [3]?
Its value is 77 nM.

What does the source list for “ACAAGCUUUUAGUUCGUCUUAUACACUCCUAAUAAGAAAACAUGAGGAUCACCCAUGUAAGAAAUAAGAACUCAUGU [Sesor Array 2 - Jieux - Sensor v3, turn-off variant 2] (Eterna round: R96, puzzle: Sensor v3, turn-off variant 2)”?
apparent KD of MS2 coat protein (input ligand: FMN 200 uM): 186 nM; apparent KD of MS2 coat protein [4]: 297 nM; apparent KD of MS2 coat protein (input ligand: none): 143 nM

“ACAAGCUUUUAGUUCGUCUUAUACACUCCUAAUAAGAAAACAUGAGGAUCACCCAUGUAAGAAAUAAGAACUCAUGU [Sesor Array 2 - Jieux - Sensor v3, turn-off variant 2] (puzzle: Sensor v3, turn-off variant 2)” was tested. Which “apparent KD of MS2 coat protein” value [1] did it give?
Its value is 151 nM.

And the “apparent KD of MS2 coat protein” value [2]?
The value was 396 nM.

And the “apparent KD of MS2 coat protein” value [3]?
The value was 209 nM.
